According to patent publication US20250042994A1 (HAINAN SIMCERE ZAIMING PHARMACEUTICAL, published 2025):

B1: F3.13.2 (antibody, human IgG1, V domains shown)
VH: DVQLQESGPGLMKPSQSLSLTCSVTGYSITSGYYWNWIRQFPGNKLEWMGYISYDGSNNYNPSLKNRFSITRDTSKNQFFLKLNSVTTEDTATYYCARRKLTGGPYFDYWGQGTTLTVSS
VL: DIVLTQSPASLAVTLGQRATISCRASESVSFHGFHIMHWYQQKPGQPPKLLIYAASHLVSGVPDRFSGSGSETDFTLNIHPVEEEDAAAYFCQQSVEDPWTFGGGTKLEIK
notes: human-murine chimeric antibody, human IgG1
B2: F3.64.4 (antibody, human IgG1, V domains shown)
VH: EVQLQQSGPELVKPGASVKISCKASGYTFTDYHINWVKQSHGKSPEWIGDINPNNGGTTYNQKFKDKATLTVDKSSSTAFMELRSLTSEDSAVYYCARFITTVVAWYFDVWGTGTTVTVSS
VL: DIQMTQSPASLSVSVGETVTITCRASENIYSNLAWYQQKQGKSPQLLVYAATNLADGVPSRFSGSGSGTQYSLKINSLQSEDFGNYYCQRFWDTPRTFGGGTKLEIK
notes: as for B1
B3: F3.74.4 (antibody, human IgG1, V domains shown)
VH: QVQLQQSGAELVRPGASVTLSCKASGYTFTDYEMHWVKQTPVHGLEWIGGIAPETGLTTYNQKFEDKAILTADKSSRTAYMELRSLTSEDSAVYFCNPNNYGLWGTGTTVTVSS
VL: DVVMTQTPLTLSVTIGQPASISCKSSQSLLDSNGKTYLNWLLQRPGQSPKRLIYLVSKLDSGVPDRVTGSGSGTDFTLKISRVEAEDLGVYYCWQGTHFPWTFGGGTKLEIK
notes: as for B1
B4: F3.81.2 (antibody, human IgG1, V domains shown)
VH: QVQLQQPGAELVMPGASVKLSCKASAYTFTNYWMHWVKQRPGHGLEWIGEIDPSDSYTDYNQNFKAKATLTVDKSSSTAYMQLSSLTSEDSAVYYCARLMGRYFDVWGTGTTVTVSS
VL: DIVMTQSHKFMSTSVGDRVSITCKASQDVSAAVAWYQQKPGQSPKLLINSASYRYTGVPDRFTGSGSGTDFTFTISSVQAEDLAVYYCQQHYSTPLTFGAGTKLELR
notes: as for B1
B5: F3.83.9 (antibody, human IgG1, V domains shown)
VH: DVQLQESGPGLVKPSQSLSLTCSVTGYSITSGYYWNWIRQFPGNKLEWMGYISYDGGNNYNPSLKNRISITRDTSKNQFFLKLNSVTTEDTATYFCAREDYSNWYFDVWGTGTTVTVSS
VL: DIVLTQSPASLAVSLGQRATISCRASQSVSKSSYSYMHWYQQKPGQSPKLLIKYASILKSGVPARFSGSGSGTDFTLNIHPVEEEDTATYYCQHSWEIPWTFGGGTKLEIK
notes: as for B1
B6: F3.109.1 (antibody, human IgG1, V domains shown)
VH: EVQLQQSGAELVRPGSSVKMSCKTSGYTFTSYGINWVKQRPGQGLEWIGYIYIGNDYTEFNEKFKGKATLTSDTSSSTAYMQLSSLTSEDSAIYFCARFYSNSDPMDYWGHGTSVTVSS
VL: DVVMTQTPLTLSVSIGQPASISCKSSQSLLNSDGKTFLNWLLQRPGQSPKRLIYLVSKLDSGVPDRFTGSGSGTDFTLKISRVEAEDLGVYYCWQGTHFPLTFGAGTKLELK
notes: as for B1
B7: F3.113.16 (antibody, human IgG1, V domains shown)
VH: QVQLQQPGAELVKPGASVKLSCKASGYTFTNYWMQWVKQRPGQGLEWIGEIDPSDSYINYNQKFKGKATLTADTSSSTAYMQLSSLTYEDSAVYYCARPVTVPWYFDVWGTGTTVTVSS
VL: EIVLTQSPTTMAASPGEKITITCSATSSISSNYLHWYQQKPGFSPKLLIYRTSNLASGVPARFSGSGSGTSYSLTIGTMEAEDVATYYCQQGSAIPRIFTFGSGTKLEIK
notes: as for B1
B8: F3.114.12 (antibody, human IgG1, V domains shown)
VH: DVQLQESGPGLVKPSQSLSLTCSVTGYSITSGYDWNWIRQFPGNKLEWMGYISYDGKNNYNPSLRNRISITRDTSKNQFFLKLNSVTTEDTATYYCARRDLRGYFDVWGTGTTVTVSS
VL: DIVLTQSPATLSVTPGDRVSLSCRASQSISNYLHWYQQKSHESPRLLIKYASLSISGIPSRFSGSGSGTDFTLSINSVETEDFGVYFCQQSNSWPLTFGAGTKLELK
notes: as for B1
B9: F3.121.4 (antibody, human IgG1, V domains shown)
VH: QVQLQQPGAELVVPGTSVKLSCKASGYTFTNYWMHWVKQRPGQGLEWIGEIDPSDNYANYNQEFQGKATLTVDKSSSTAYMQLSSLTSDDSAVYYCARHDGYFGALDYWGQGTSVTVSS
VL: EIVLTQSPTTMAASPGEKITITCSASSSISSNYLHWYQQKPGFSPKFLIYRTSNLASGVPARFSGSGSGTSYSLTIGTMEAEDVATYYCQQASSIPRMFTFGSGTKLEIK
notes: as for B1
B10: F3.126.15 (antibody, human IgG1, V domains shown)
VH: QVQLQQPGAELVMPGASVKLSCKASGYTFTSYWMHWVKQRPGQGLEWIGEIDPSDSYTTYNQNFKGKATLTVDISTSTAYIQLSNLTSEDSAVYYCARLTGNYIHYWGQGTTLTVSS
VL: DIVMTQSHKFMSTSVGDRVSITCKASQDVSPAVAWYQQRPGQCPKLLIFSSSYRSTGVPDRFTGSGSGTDFTFTISSVQAEDLAVYYCQQHYSLPLTFGAGTKLELK
notes: as for B1

What was measured:
human CD19 on Raji cells = molecular target: T1, human CD19 on Raji cells (human, UniProt P15391 20-556); assay: FACS on Raji cells
T1 construct: whole, on cells
T1 sequence (looked up): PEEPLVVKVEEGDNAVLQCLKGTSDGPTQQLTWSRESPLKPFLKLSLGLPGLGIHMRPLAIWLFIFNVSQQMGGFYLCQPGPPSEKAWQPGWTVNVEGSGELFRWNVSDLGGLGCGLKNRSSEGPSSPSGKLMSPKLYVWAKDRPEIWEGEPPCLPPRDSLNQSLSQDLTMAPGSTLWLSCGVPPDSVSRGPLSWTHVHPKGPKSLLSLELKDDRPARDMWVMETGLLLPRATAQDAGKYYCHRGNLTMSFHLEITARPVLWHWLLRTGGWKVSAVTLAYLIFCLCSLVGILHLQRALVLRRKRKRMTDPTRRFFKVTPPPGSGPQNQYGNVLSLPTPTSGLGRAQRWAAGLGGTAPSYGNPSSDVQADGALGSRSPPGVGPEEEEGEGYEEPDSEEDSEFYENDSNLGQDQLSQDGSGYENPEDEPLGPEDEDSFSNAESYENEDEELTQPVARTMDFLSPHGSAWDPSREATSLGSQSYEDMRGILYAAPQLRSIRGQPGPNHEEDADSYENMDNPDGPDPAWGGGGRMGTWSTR

[1] = molecular target: T2, cynomolgus monkey CD19 on peripheral blood B cells (cynomolgus monkey (Macaca fascicularis), UniProt A0A2K5W8L9 20-557); assay: FACS, cynomolgus PBMC, CD20+ B cells
T2 construct: whole, on cells; also called cynomolgus monkey B cells
T2 sequence: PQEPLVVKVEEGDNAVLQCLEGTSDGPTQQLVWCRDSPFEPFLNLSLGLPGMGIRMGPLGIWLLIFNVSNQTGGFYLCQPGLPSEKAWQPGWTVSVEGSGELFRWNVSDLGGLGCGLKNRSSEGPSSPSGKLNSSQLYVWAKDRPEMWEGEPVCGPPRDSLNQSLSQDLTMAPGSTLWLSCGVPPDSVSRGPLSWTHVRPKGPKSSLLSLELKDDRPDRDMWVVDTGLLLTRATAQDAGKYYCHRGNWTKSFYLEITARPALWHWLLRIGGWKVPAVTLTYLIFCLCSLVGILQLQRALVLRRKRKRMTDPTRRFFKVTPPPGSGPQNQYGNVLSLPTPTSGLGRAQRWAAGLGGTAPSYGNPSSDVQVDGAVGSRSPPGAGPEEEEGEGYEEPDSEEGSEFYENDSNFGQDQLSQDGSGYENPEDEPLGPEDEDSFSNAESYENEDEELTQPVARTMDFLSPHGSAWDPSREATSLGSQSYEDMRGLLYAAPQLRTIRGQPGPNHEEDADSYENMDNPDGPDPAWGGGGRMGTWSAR
Experimental: The monkey peripheral blood mononuclear cells were extracted from fresh cynomolgus monkey peripheral blood (purchased from Shanghai Medicilon Inc.) according to the instructions of Ficoll-Paque Plus (purchased from GE Healthcae, catalog number: 171440-02). After the cell suspension was centrifuged, the cells were resuspended in PBS containing 1% BSA, and then the cells were counted. […] The mixture was incubated for 1 h at room temperature. After washing the cells three times, APC-labeled secondary antibody anti-human IgG Fc (catalog number: 409306, purchased from Biolegend) was added. After incubation at room temperature in the dark for 30 minutes, the cells were washed 5 times, gently resuspended with PBS containing 1% BSA, and detected and analyzed by FACS (FACS Canto™, purchased from BD Company), in which CD20 was used as a marker of B cells to gate the CD20-positive B cell population, the proportion of the chimeric antibody-labeled positive cells was analyzed, and the proportion of the chimeric antibody positive cell population to B cell population was calculated after treatments with the chimeric antibodies at the concentrations of 100 nM, 10 nM and 1 nM, respectively.

[2] = molecular target: T3, human CD19 on CHO-K1-human CD19 cells (human, UniProt P15391 20-556); assay: FACS on CHO-K1-human CD19 cells
T3 construct: whole, on cells; also called CHO-K1-human CD19-2C8
T3 sequence (looked up): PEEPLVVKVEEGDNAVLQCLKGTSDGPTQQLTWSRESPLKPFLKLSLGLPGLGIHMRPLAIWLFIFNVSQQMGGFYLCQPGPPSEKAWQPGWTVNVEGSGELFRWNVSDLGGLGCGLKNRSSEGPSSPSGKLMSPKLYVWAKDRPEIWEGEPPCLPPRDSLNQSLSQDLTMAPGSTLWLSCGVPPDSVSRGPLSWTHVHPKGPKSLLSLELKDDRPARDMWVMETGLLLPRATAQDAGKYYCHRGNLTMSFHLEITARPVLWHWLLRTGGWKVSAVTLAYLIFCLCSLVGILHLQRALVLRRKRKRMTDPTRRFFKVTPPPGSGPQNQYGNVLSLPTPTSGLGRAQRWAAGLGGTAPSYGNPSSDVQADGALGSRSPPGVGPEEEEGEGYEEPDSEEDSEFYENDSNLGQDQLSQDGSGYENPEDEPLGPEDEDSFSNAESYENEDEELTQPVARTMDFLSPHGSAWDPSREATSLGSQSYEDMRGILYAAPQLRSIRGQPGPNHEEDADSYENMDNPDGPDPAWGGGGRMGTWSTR

[3] = molecular target: T4, monkey CD19 on HEK293T-monkey CD19 cells (monkey); assay: FACS on HEK293T-monkey CD19 cells
T4 construct: whole, on cells
How it was run: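 Cells blocked in PBS + 2% (w/w) BSA at 2×10⁶ cells/ml, then incubated with test antibody on ice for 2 h. After washes, binding read by flow cytometry as mean fluorescence intensity (MFI). EC50 from fitted MFI curves. Parental HEK293T cells run by the same method.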

Binder | EC50 (human CD19 on Raji cells) | Maximum mean fluorescence intensity (human CD19 on Raji cells) | Proportion of chimeric antibody positive cells to B cells (%) at 1 nM [1] | Proportion of chimeric antibody positive cells to B cells (%) at 10 nM [1] | Proportion of chimeric antibody positive cells to B cells (%) at 100 nM [1] | EC50 [2] | Maximum mean fluorescence intensity [2] | EC50 [3] | Maximum mean fluorescence intensity [3]
B1 | 5.24 nM | 27100 | 1% | 3% | 8% | 2.46 nM | 43900 | 2.64 nM | 66400
B2 | 0.43 nM | 35800 | 1% | 2% | 9% | 0.61 nM | 63700 | 3.99 nM | 98400
B3 | 3.41 nM | 30100 | 1% | 1% | 1% | 4.55 nM | 3850 | – | 121
B4 | 0.68 nM | 31300 | 7% | 16% | 38% | 1.27 nM | 59600 | 3.44 nM | 153000
B5 | 1.75 nM | 29700 | 58% | 97% | 99% | 1.34 nM | 52200 | 1.12 nM | 198000
B6 | 0.44 nM | 29900 | 1% | 1% | 1% | 0.57 nM | 3980 | – | 148
B7 | 0.96 nM | 28800 | 1% | 1% | 6% | 0.39 nM | 34100 | – | 176
B8 | 3.34 nM | 28700 | 40% | 90% | 99% | 2.32 nM | 50400 | 1.56 nM | 210000
B9 | 0.31 nM | 32900 | 1% | 2% | 2% | 0.3 nM | 53700 | – | 80
B10 | 1.18 nM | 30300 | 16% | 27% | 49% | 2.47 nM | 56700 | 5.57 nM | 175000
